# Reference: US20150037339A1 (Regeneron, published 2015)
# T1: Activin B (human, UniProt P09529 293-407)
# T1 chain: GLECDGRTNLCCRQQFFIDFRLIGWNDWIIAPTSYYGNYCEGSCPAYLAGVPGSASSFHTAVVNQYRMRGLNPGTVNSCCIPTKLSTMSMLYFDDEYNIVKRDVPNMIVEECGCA
# T2: Activin A (human, UniProt P08476 311-426)
# T2 sequence: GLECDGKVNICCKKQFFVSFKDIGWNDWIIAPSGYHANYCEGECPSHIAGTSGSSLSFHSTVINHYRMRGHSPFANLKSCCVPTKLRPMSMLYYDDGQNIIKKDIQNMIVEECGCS
# T3: Activin AB (human, UniProt P08476 311-426; P09529 293-407)
# T3 construct: Heterodimer of one betaA and one betaB subunit; bought (R&D Systems #1006-AB-005 / #1066-AB)
# T3 chain 1: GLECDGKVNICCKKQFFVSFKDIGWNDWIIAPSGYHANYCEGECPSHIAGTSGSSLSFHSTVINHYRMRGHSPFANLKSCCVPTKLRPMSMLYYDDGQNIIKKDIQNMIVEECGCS
# T3 chain 2: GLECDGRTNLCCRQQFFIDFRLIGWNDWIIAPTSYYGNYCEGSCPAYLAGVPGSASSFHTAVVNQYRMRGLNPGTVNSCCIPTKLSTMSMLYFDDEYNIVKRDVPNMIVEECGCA
# T4: Activin AC (human, UniProt P55103 237-352)
# T4 sequence 1: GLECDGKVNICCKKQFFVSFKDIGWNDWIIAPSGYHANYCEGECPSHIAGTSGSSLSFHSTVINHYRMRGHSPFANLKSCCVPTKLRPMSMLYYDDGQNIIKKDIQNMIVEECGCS
# T4 sequence 2: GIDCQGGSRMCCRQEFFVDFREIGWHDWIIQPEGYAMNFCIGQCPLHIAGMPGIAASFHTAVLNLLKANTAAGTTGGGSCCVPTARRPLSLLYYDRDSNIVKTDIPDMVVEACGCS
# T5: Activin A (homodimer of two inhibin βA subunits; R&D Systems, #338-AC) (human, UniProt P08476 311-426)
# T5 construct: Bought protein; also called inhibin-βA dimer
# T5 sequence: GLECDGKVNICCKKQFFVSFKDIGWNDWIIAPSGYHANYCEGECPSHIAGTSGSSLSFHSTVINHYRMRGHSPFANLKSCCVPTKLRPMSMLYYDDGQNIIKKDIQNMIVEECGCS
# Columns and labels:
# Activin B = target: T1, Activin B; assay: cell-based or functional assay
# Activin A = target: T2, Activin A; assay: cell-based or functional assay
# Activin AB [1] = target: T3, Activin AB; assay: SPR (Biacore), mAb captured on anti-Fc, Activin AB injected, 25 C
# Description: (§1) Antibody-antigen association was monitored for 240 seconds while dissociation in buffer was monitored for 600 seconds. Kinetic association and dissociation rate constants were determined by processing and fitting the data using Scrubber software version 2.0c. Binding equilibrium dissociation constants (KD) and dissociative half-lives (t_{1/2}) were then calculated from the kinetic rate constants as: KD (M)=kd/kₐ and t_{1/2} (min)=[ln 2/(60*kd)]. (NB=no binding observed under the conditions used; NT=not tested).
# Activin AB [2] = target: T3, Activin AB; assay: SPR (Biacore), mAb captured on anti-Fc, Activin AB injected, 37 C
# Description: as §1
# Activin AC [3] = target: T4, Activin AC; assay: cell-based or functional assay
# Activin AB [4] = target: T3, Activin AB; assay: cell-based or functional assay
# Activin AC [5] = target: T4, Activin AC; assay: SPR (Biacore), mAb captured on anti-Fc, Activin AC injected, 37 C
# Description: as §1
# Activin AC [6] = target: T4, Activin AC; assay: SPR (Biacore), mAb captured on anti-Fc, Activin AC injected, 25 C
# Description: as §1
# [7] = target: T5, Activin A (homodimer of two inhibin βA …); assay: SPR blocking: 5 nM Activin A + 30 nM binder over Follistatin-288 surface
# Description: (§2) The binding signal (RU) was measured at 150 seconds after the start of the injection, and this signal was subtracted by the measured RU value for a negative control reference surface to determine the specific binding signal.
# [8] = target: T5, Activin A (homodimer of two inhibin βA …); assay: SPR blocking: 5 nM Activin A + 60 nM binder over hActRIIA-hFc surface
# Description: as §2
# [9] = target: T5, Activin A (homodimer of two inhibin βA …); assay: SPR blocking: 5 nM Activin A + 0.94 nM binder over Follistatin-288 surface
# Description: as §2
# [10] = target: T5, Activin A (homodimer of two inhibin βA …); assay: SPR blocking: 5 nM Activin A + 7.5 nM binder over Follistatin-288 surface
# Description: as §2
# [11] = target: T5, Activin A (homodimer of two inhibin βA …); assay: SPR blocking: 5 nM Activin A + 15 nM binder over hActRIIB-hFc (Control 4) surface
# [12] = target: T5, Activin A (homodimer of two inhibin βA …); assay: SPR blocking: 5 nM Activin A + 30 nM binder over hActRIIB-hFc (Control 4) surface
# Description: as §2
# [13] = target: T5, Activin A (homodimer of two inhibin βA …); assay: SPR blocking: 5 nM Activin A + 0 nM binder over Follistatin-288 surface
# Description: as §2
# [14] = target: T5, Activin A (homodimer of two inhibin βA …); assay: SPR blocking: 5 nM Activin A + 60 nM binder over Follistatin-288 surface
# Description: as §2
# [15] = target: T5, Activin A (homodimer of two inhibin βA …); assay: SPR blocking: 5 nM Activin A + 15 nM binder over hActRIIA-hFc surface
# Description: as §2
# [16] = target: T5, Activin A (homodimer of two inhibin βA …); assay: SPR blocking: 5 nM Activin A + 1.88 nM binder over hActRIIA-hFc surface
# Description: as §2
# [17] = target: T5, Activin A (homodimer of two inhibin βA …); assay: SPR blocking: 5 nM Activin A + 30 nM binder over hActRIIA-hFc surface
# Description: as §2
# [18] = target: T5, Activin A (homodimer of two inhibin βA …); assay: SPR blocking: 5 nM Activin A + 0.00 nM binder over hActRIIA-hFc surface
# Description: as §2
# [19] = target: T5, Activin A (homodimer of two inhibin βA …); assay: SPR blocking: 5 nM Activin A + 7.50 nM binder over hActRIIA-hFc surface
# Description: as §2
# [20] = target: T5, Activin A (homodimer of two inhibin βA …); assay: SPR blocking: 5 nM Activin A + 0.94 nM binder over hActRIIA-hFc surface
# Description: as §2
# [21] = target: T5, Activin A (homodimer of two inhibin βA …); assay: SPR blocking: 5 nM Activin A + 1.88 nM binder over hActRIIB-hFc (Control 4) surface
# Description: as §2
# [22] = target: T5, Activin A (homodimer of two inhibin βA …); assay: SPR blocking: 5 nM Activin A + 15 nM binder over Follistatin-288 surface
# Description: as §2
# [23] = target: T5, Activin A (homodimer of two inhibin βA …); assay: SPR blocking: 5 nM Activin A + 3.75 nM binder over hActRIIB-hFc (Control 4) surface
# Description: as §2
# [24] = target: T5, Activin A (homodimer of two inhibin βA …); assay: SPR blocking: 5 nM Activin A + 3.75 nM binder over Follistatin-288 surface
# Description: as §2
# [25] = target: T5, Activin A (homodimer of two inhibin βA …); assay: SPR blocking: 5 nM Activin A + 0.94 nM binder over hActRIIB-hFc (Control 4) surface
# [26] = target: T5, Activin A (homodimer of two inhibin βA …); assay: SPR blocking: 5 nM Activin A + 1.88 nM binder over Follistatin-288 surface
# Description: as §2
# [27] = target: T5, Activin A (homodimer of two inhibin βA …); assay: SPR blocking: 5 nM Activin A + 60 nM binder over hActRIIB-hFc (Control 4) surface
# Description: as §2
# [28] = target: T5, Activin A (homodimer of two inhibin βA …); assay: SPR blocking: 5 nM Activin A + 7.50 nM binder over hActRIIB-hFc (Control 4) surface
# [29] = target: T5, Activin A (homodimer of two inhibin βA …); assay: SPR blocking: 5 nM Activin A + 3.75 nM binder over hActRIIA-hFc surface
# Description: as §2
# [30] = target: T5, Activin A (homodimer of two inhibin βA …); assay: SPR blocking: 5 nM Activin A + 0.00 nM binder over hActRIIB-hFc (Control 4) surface
# Description: as §2
binder,measurement,setting,value
"H4H10433P2 (antibody, human IgG4, V domains shown) VH: EVQLVESGGGLVQAGRSLRLSCEASGFTFDDYGMHWVRQGPGKGLEWVSGISWNSGNIDYADSVKGRFTISRDNAKTSLYLQMNSLKTDDTALYFCAKDAVGFNWNYFLFDYWGQGTLVTVSS VL: not shown","IC50 [M], inhibition of 50 pM Activin B in A204/CAGAx12-Luc Smad2/3-luciferase bioassay",Activin B,1e-07 M
same,"IC50 [M], inhibition of 100 pM Activin A in A204/CAGAx12-Luc Smad2/3-luciferase bioassay",Activin A,1.5e-10 M
"H4H10440P2 (antibody, human IgG4, V domains shown) VH: EVQLVESGGGVVQPGGSLRLSCAASTFTFDDFAMHWVRQAPGKGLEWVSLITGDGGSTYYADPVKGRFTISRDNSKNSLYLQMNSLRTEDTALYYCVKDWWIAARPDYYYYGMDVWGQGTTVTVSS VL: not shown",50 nM Ag Bound (RU),Activin AB [1],15.5 RU
same,Kd,Activin AB [1],0.177 nM
same,koff,Activin AB [1],0.000526 s⁻¹
same,kon,Activin AB [1],2.97e+06 M⁻¹ s⁻¹
same,t1/2,Activin AB [1],22 min
same,50 nM Ag Bound (RU),Activin AB [2],17.7 RU
same,Kd,Activin AB [2],0.314 nM
same,koff,Activin AB [2],0.00163 s⁻¹
same,kon,Activin AB [2],5.2e+06 M⁻¹ s⁻¹
same,t1/2,Activin AB [2],7.1 min
same,"IC50 [M], inhibition of 4 nM Activin AC in A204/CAGAx12-Luc Smad2/3-luciferase bioassay",Activin AC [3],7.5e-10 M
same,"IC50 [M], inhibition of 50 pM Activin B in A204/CAGAx12-Luc Smad2/3-luciferase bioassay",Activin B,5.2e-09 M
same,"IC50 [M], inhibition of 100 pM Activin A in A204/CAGAx12-Luc Smad2/3-luciferase bioassay",Activin A,2.8e-10 M
same,"IC50 [M], inhibition of 30 pM Activin AB in A204/CAGAx12-Luc Smad2/3-luciferase bioassay",Activin AB [4],4.3e-10 M
same,50 nM Ag Bound (RU),Activin AC [5],13.3 RU
same,Kd,Activin AC [5],1.05 nM
same,koff,Activin AC [5],0.000755 s⁻¹
same,kon,Activin AC [5],718000 M⁻¹ s⁻¹
same,t1/2,Activin AC [5],15.3 min
same,50 nM Ag Bound (RU),Activin AC [6],11.8 RU
same,Kd,Activin AC [6],0.442 nM
same,koff,Activin AC [6],0.000227 s⁻¹
same,kon,Activin AC [6],513000 M⁻¹ s⁻¹
same,t1/2,Activin AC [6],50.8 min
"H4H10423P (antibody, human IgG4, V domains shown, H4H prefix means human IgG4 Fc) VH: QVQLQQSGPGLLKPSQTLSLTCAISGDSVSSNSAAWSWIRQSPSRGLEWLGRTYYRANWFNDYALSVKSRITINPVTSTNHFSLQLHSVTPEDTAVYYCAREGALGYYFDSWGQGTLVTVSS VL: not shown",% bound RU w/no inhibitor,[7],94%
same,% bound RU w/no inhibitor,[8],116%
same,% bound RU w/no inhibitor,[9],120%
same,% bound RU w/no inhibitor,[10],97%
same,% bound RU w/no inhibitor,[11],42%
same,% bound RU w/no inhibitor,[12],41%
same,% bound RU w/no inhibitor,[13],100%
same,% bound RU w/no inhibitor,[14],93%
same,% bound RU w/no inhibitor,[15],112%
same,% bound RU w/no inhibitor,[16],114%
same,% bound RU w/no inhibitor,[17],114%
same,% bound RU w/no inhibitor,[18],100%
same,% bound RU w/no inhibitor,[19],110%
same,% bound RU w/no inhibitor,[20],112%
same,% bound RU w/no inhibitor,[21],78%
same,% bound RU w/no inhibitor,[22],96%
same,% bound RU w/no inhibitor,[23],47%
same,% bound RU w/no inhibitor,[24],103%
same,% bound RU w/no inhibitor,[25],93%
same,% bound RU w/no inhibitor,[26],122%
same,% bound RU w/no inhibitor,[27],41%
same,% bound RU w/no inhibitor,[28],42%
same,% bound RU w/no inhibitor,[29],111%
same,% bound RU w/no inhibitor,[30],100%
